Test results taken from US20030191083.

Target: T1, RNase P protein (SPP, SP protein) (Staphylococcus aureus) (UniProt A8YYS2)
T1 sequence: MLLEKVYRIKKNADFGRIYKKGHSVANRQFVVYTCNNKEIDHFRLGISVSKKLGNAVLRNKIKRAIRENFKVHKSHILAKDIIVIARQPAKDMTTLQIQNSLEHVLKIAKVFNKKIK
Experiment: filter

For “GUUCUGAUAUUUUGGGUAAUCGCUAUAUUAUAUAGAGGAAAGUCCAUGCUCACACAGUCUGAGAUGAUUGUAGUGUUCGUGCUUGAUGAAACAAUAAAUCAAGGCAUUAAUUUGACGGCAAUGAAAUAUCCUAAGUCUUUCGAUAUGGAUAGAGUAAUUUGAAAGUGCCACAGUGACGUAGCUUUUAUAGAAAUAUAAAAGGUGGAACGCGGUAAACCCCUCGAGUGAGCAAUCCAAAUUUGGUAGGAGCACUUGUUUAACGGAAUUCAACGUAUAAACGAGACACACUUCGCGAAAUGAAGUGGUGUACGACAGAUGGUUAUCACCUGAGUACCAGUGUGACUAGUGCACGUGAUGAGUACGAUGGAACAGAACAUGGCUUAUAGAAAUAUCACUACUA [S. aureus RNase P RNA (SP RNA)]”, the Kd (20 mM K-Hepes pH 8.0, 0.01% NP40, 400 mM NH4OAc, 10 mM MgCl2, 5% glycerol, at least three experiments) was 8 nM and the Kd (binding constant of the complex stated in summary, filter binding and gel shift, differs from 8 nM in p322) was 20 nM.
